The values that follow come from publication PMC7725785 (2020).

Holding throughout (experiment): SPR
Assay [1] deals with T1, GST-tagged TRIB3 (human, UniProt Q96RU7 1-358).
T1 chain: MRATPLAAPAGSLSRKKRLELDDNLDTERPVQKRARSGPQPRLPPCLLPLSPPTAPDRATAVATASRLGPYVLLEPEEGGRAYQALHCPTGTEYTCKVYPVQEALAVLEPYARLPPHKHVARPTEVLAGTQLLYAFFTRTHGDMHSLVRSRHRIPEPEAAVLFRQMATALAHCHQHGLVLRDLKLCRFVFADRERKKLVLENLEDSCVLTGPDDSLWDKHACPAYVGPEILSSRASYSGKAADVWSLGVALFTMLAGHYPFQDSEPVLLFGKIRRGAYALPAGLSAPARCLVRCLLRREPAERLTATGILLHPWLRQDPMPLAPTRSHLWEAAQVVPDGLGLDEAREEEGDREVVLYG

The target in assay [2] is T1, GST-tagged TRIB3.
Assay [3] concerns the target T2, MAX protein (SPR) (human, UniProt P61244 1-160).
Assay [4] has as its target T2, MAX protein (SPR). The source holds these as a separate data set.
For assay [5], the target named is T1, GST-tagged TRIB3.

What is called koff is a measure of how fast the partners let go of each other. High values mean a short-lived complex, low ones a long-lived complex. As usually defined, the Kd is the equilibrium constant for the complex coming apart. Low readings indicate a tighter complex, high ones a looser complex.

Where two headings read alike, the source gives them in different places. Where no end group is shown, it is not given here. [ ]: non-standard residue; d: D form.

T2 sequence (P61244 whole entry): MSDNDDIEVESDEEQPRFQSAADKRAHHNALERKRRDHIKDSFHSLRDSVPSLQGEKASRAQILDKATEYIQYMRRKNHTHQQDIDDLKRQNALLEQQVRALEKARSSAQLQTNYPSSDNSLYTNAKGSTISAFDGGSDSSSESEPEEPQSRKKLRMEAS

B1: CM2 peptide (peptide)
peptide: [dK][dV][dV][dI][dL][dK][dK][dA][dT][dA][dY][dI][dL][dS][dV]
In assay [1], B1 yielded a koff of 0.0166 s⁻¹. Besides, the Kd in assay [2] turned out to be 8.17 µM.

B2: CM4 peptide (peptide)
peptide: [dK][dR][dR][dE][dQ][dL][dK][dH][dK][dL][dE][dQ][dL][dR]
Consider B2, for which the koff was 0.0417 s⁻¹ in assay [3] and 0.0769 s⁻¹ in assay [5]. Binding in assay [4] was put at a Kd of 12.8 µM.

B3: CM3 peptide (peptide)
peptide: [dQ][dA][dE][dE][dQ][dK][dL][dI][dS][dE][dE][dD][dL][dL][dR]
On to B3, for which, in assay [1], the koff worked out at 0.000434 s⁻¹. In assay [2], this molecule yielded a Kd of 0.707 µM.

B4: CM1 peptide (peptide)
peptide: [dE][dR][dQ][dR][dR][dN][dE][dL][dK][dR][dS][dF][dF][dA][dL][dR]
With B4, the koff was determined as 0.0099 s⁻¹ in assay [3] and 0.00531 s⁻¹ in assay [1]. Also, the figures for the Kd in assay [4] and in assay [2] were 0.897 µM and 3.4 µM, respectively.
